Substitutions are numbered along the chain they refer to. In names and notes the source's numbering stands.
Experiments:
[1] = cited from earlier work; for estimated concentration in the brain, tissue, organs, and solid tumors / estimated concentration in the serum: tamoxifen orally 20 mg/day
[2] = tested on: U87MG: 1066 cells; experiment: Modified ER-LBD validation in U87MG with mCherry reporter; type: cell-based; details: SB01066 reporter
Method: About 16 hours before transduction 100k U87MG: 1066 cells were seeded into 16 wells in 12 well plate format. During transduction, cells in each well were transduced with 100k pg of virus of ERT2 variant constructs. After transduction, cells were split into 50k cells per well in a 24 well plate format, and treated with drug-free media or a range of endoxifen or 4-OHT drug conditions. About two days after treatment of cells with endoxifen or 4-OHT, cells were collected and mCherry reporter expression was quantified by flow cytometry.
Screening of the modified ER-LBD construct library identified a subset of ERT2 variants that were sensitive to endoxifen at 1 nM. Among this subset, 15 variants (Table 19) were validated in U87MG cells for their ability to activate an mCherry reporter (SB01066; FIG. 14B) at a range of concentrations of 0 pM, 10 pM, 50 pM, 100 pM, and 1 nM of endoxifen (FIG. 15A) and 4-OHT (FIG. 15B). Expression of mCherry was quantified about […] after treatment with endoxifen or 4-OHT.
Select ERT2 variants (Table 20) from the previous screens were further tested for sensitivity to endoxifen and 4-OHT, compared to wild-type ERT2. […] Fold activation was calculated by gMFI mCherry levels of each test condition divided by gMFI mCherry levels of U87MG cells transduced with the reporter (SB01066).

[3] = tested on: HEK293T cells; experiment: Suicide-switch assay, killing efficiency by incucyte; type: cell-based; details: for killing efficiency: 48 hours
Method: A 24-well dish was seeded with 25,000 Lent-X HEK293T cells (Takara, Catalog #: 632180). The next day, the cells were transduced with 25,000 pg of virus for constructs SB07351-SB07354: ERT2mut-casp9 constructs tagged with mCherry to track successfully transduced cells in a population. The constructs each take the form ERT2*mut-Casp9-IRES-RFP (SB07351=mut81; SB07352=mut88; SB07353=mut63; SB07354=mut41). The next day, transduced cells were split into a 96-well plate with ˜5,000 cells in each well and loaded into an incucyte to quantify cell expansion via images every 2 hours detecting mCherry expression. Media was exchanged 24 hours later with new media with indicated concentration of 4-OHT or no drug added. Cells continued to be imaged by the incucyte every 2 hours for 48 hours post exchange of media.
Cell death was quantified via detection of suicide-switch linked mCherry expression using the following formula:
Killing efficiency=100−((mCherry expression in drug treated population)/(mCherry expression in ND population)) [NOTE: mCherry background prevents 100% KE from being calculated; >95% killing efficiency is considered complete killing in this assay]

[4] = tested on: HEK293T cells; experiment: Time course of ERT2 mutant safety switch activity in HEK cells; type: cell-based
Method: Twenty-four hours later, ˜3k transduced cells were plated into each well of a 96w plate and cultured in 100 μL of drug-free growth media (DMEM+10% FBS, 1% p-s, 1% Glutamax).
Killing efficiency was calculated by taking the average mCherry area quantified by the incucyte in the drug treated sample divided by the mCherry area quantified in the ND conditions of the same transduced population and subtracting that fraction from 1. 95% KE was defined as complete killing by previous studies with this same mCherry reporter being treated with Puromycin, a toxic drug that results in complete killing of HEK293T cells within 48 hours of application.

[5] = tested on: primary T cells; experiment: Killing assay of safety kill switch in transduced primary T cells; type: cell-based
Method: Primary T cells isolated from a donor were thawed and stimulated with Dynabeads for 24 hours. Next, ERT2*mut81-Casp9-IRES-RFP (SB07351, prepared as lentivirus) was transduced into the T cells. Two days post transduction, cell media were replaced with T Cell media containing IL-2 to promote expansion. 1 week post transduction, cells were quantified for transduction efficiency (Safety kill switch transduction was tracked by expression of RFP tag) by flow cytometry and then loaded into incucyte for quantification of killing efficiency.
• D0-D1: Expansion of cells in drug free T cell media (with IL-2) • D1-onward: Drug free T cell media (with IL-2) was exchanged with media containing indicated drug conditions (as well as IL-2) • Killing efficiency was calculated by the following formula:
1−(RFP expression of cells in drug treated conditions)/(RFP expression of transduced cells in the No Drug condition)

[6] = tested on: U87MG: 2357 reporter cell line; experiment: ERT2 mutant transcriptional switch inducing an IL-12 payload (IL-12p70 ELISA); type: cell-based; details: 72 hours
Method: FIG. 28A depicts constructs and experimental methods for evaluating exemplary ERT2 mutant transcriptional switches for inducing expression of an IL-12 payload. U87MG cells were transduced with construct SB02357, comprising synthetic promoter comprising a 4×ZF-10 zinc finger binding site (SEQ ID NO: 59) linked to a minimal promoter operably linked to an IL-12 encoding sequence. This generated a U87MG: 2357 reporter cell line used for assessing the ability of ERT2 transcriptional switch constructs to activate transcription of the IL-12 payload in a ligand-dependent manner.
25k U87MG: 2357 IL-12 payload transduced line was transduced with MOI of 1 of the ERT2 constructs SB03422, SB06149, SB09626, SB09642, SB09652, and SB09657, which are described in Example 9. […] The next day, cells were split into ND or drug titration conditions to evaluate performance at a range of Endoxifen and concentrations. 72 hours later, supernatant was harvested for quantification of IL-12 by IL-12p70 ELISA. IL-12 levels were read with a spectrophotometer at wavelength 450 nm with wavelength correction to 540 nm according to manufacturer's protocol. A kit-provided standard to calculate detected levels of IL-12 in 100 μL of media harvested from ˜100k cells based on OD.

[7] = tested on: U87MG: 1066 reporter cell line; experiment: ERT2 mutant transcriptional switch activity, mCherry reporter; type: cell-based; details: range of endoxifen concentrations
Method: FIG. 26A depicts constructs and experimental methods for evaluating exemplary ERT2 mutant transcriptional switches. U87MG cells were transduced with the mCherry reporter construct SB01066, comprising synthetic promoter comprising a 4×ZF-10 zinc finger binding site (SEQ ID NO: 59) linked to a minimal promoter operably linked to an mCherry encoding sequence. This generated a U87MG: 1066 reporter cell line used for assessing transcriptional switch activity of ERT2 transcriptional switch constructs.
25k U87MG: 1066 reporter transduced line was transduced at a MOI of 1 with various ERT2 transcriptional switch constructs having the following structure: pSFFV: ZF10-1 (zinc finger DNA binding domain, SEQ ID NO: 84)_TCR linker (SEQ ID NO: 86)_p65 (transcriptional activation domain, SEQ ID NO: 64)_[…] linker (SEQ ID NO: 88)_ERT2 domain. The ERT2 mutants included a number of amino acid substitutions in addition to the “WT ERT2” mutations G400V/M543A/L544A/V595A.
The next day, cells were split into no drug or drug titration conditions to evaluate performance at a range of endoxifen and estradiol concentrations. Performance of each ERT2 mutant transcriptional switch was evaluated by their ability to translocate and bind to the zinc finger binding site upstream of mCherry and initiate mCherry expression.
The background normalized ND (0) conditions were divided by the average NV gMFI mCherry value in order to reflect any basal activity seen by each mutant. FIG. 26C depicts induced mCherry expression plotted against basal activity for each of the tested ERT2 transcriptional switch constructs.

Molecule: CC/C(=C(\c1ccc(O)cc1)c1ccc(OCCNC)cc1)c1ccccc1 [endoxifen]
- estimated concentration in the brain, tissue, organs, and solid tumors [1]: 2.5 nM
- estimated concentration in the serum [1]: 0.25 nM

Molecule: CC/C(=C(\c1ccccc1)c1ccc(OCCN(C)C)cc1)c1ccccc1 [tamoxifen]
- average peak plasma concentration ([1]; typical clinical dose of tamoxifen): approximately 40 ng/ml

Molecule: CC/C(=C(\c1ccc(O)cc1)c1ccc(OCCN(C)C)cc1)c1ccccc1 [Construct 4-OHT, 4-hydroxytamoxifen]
- estimated concentration in the brain, tissue, organs, and solid tumors [1]: 0.4 nM
- estimated concentration in the serum [1]: 0.04 nM

B1: wild-type ERT2: ERT2 with G400V/M543A/L544A/V595A, SEQ ID NO: 3; benchmark construct (protein)
chain: SAGDMRAANLWPSPLMIKRSKKNSLALSLTADQMVSALLDAEPPILYSEYDPTRPFSEASMMGLLTNLADRELVHMINWAKRVPGFVDLTLHDQVHLLECAWLEILMIGLVWRSMEHPVKLLFAPNLLLDRNQGKCVEGMVEIFDMLLATSSRFRMMNLQGEEFVCLKSIILLNSGVYTFLSSTLKSLEEKDHIHRVLDKITDTLIHLMAKAGLTLQQQHQRLAQLLLILSHIRHMSNKGMEHLYSMKCKNVVPLYDLLLEAADAHRLHAPTSRGGASVEETDQSHLATAGSTSSHSLQKYYITGEAEGFPATA
- 4-OHT concentration at which mCherry reporter expression is activated [2]: about 25 nM
- endoxifen concentration at which mCherry reporter expression is activated [2]: about 25 nM

B2: SB07351: suicide-switch construct ERT2*mut-Casp9-IRES-RFP with mut81 (protein)
chain: AGDMRAANLWPSPLMIKRSKKNSLALSLTADQMVSALLDAEPPILYSEYDPTRPFSEASMMGLLTNLADRELVHMINWAKRVPGFVDLTLHDQVHLLECAWMEILMIGVVWRSMEHPVKLLFAPNLLLDRDQGKCVEGLVEIFDMLLATSSRFRMMNLQGEEFVCLKSIILLNSGVYTFLPSTLKSLEEKDHIHRVLDKITDTLIHLMAKAGLTLQQQHQRLAQLLLILSHIRHMSNKGMELLYSMKCKNVVPLYDLLLEAADAHRLHAPTSRGGASVEETDQSHLATAGSTSSHSLQKYYITGEAEGFPAT
- killing efficiency ([3]; 0.001 pM of 4-OHT): ~80%
- killing efficiency ([3]; down to 0.01 pM of 4-OHT): > 95%
- concentration of efficient killing, fold lower than the Ctrough of 4-OHT in humans ([3]; humans taking FDA approved daily dose of Tamoxifen): 400 ×
- killing efficiency and rate compared to the WT ERT2 safety switch ([4]; 0.25 nM endoxifen and 0.04 nM 4-OHT, 2.5 nM endoxifen+0.4 nM 4-OHT): greater killing efficiency, and at a faster rate
- sensitivity to Estradiol ([4]; 2.5 nM estradiol, long exposure times): modest activity at late time points
- time to complete killing ([5]; 2.5 nM Endoxifen & 0.4 nM 4-OHT): ≤ 48 h
- cell killing without inducer ([5]; absence of the small molecule inducer cocktail): did not induce cell killing
- sensitivity to Estradiol ([5]; day 5, Estradiol 2.2 pM): insensitivity
- killing efficiency ([5]; day 5, endoxifen 1 pM and higher): >= 95%
- killing efficiency ([5]; day 5, endoxifen as low as 0.001 pM): Strong killing efficiency
- sensitivity to Estradiol ([5]; over time, 2.2 pM Estradiol): insensitive

B3: SB09642: ERT2 mutant transcriptional switch construct pSFFV: ZF10-1_p65_ERT2 domain (Table 23) (protein)
chain: B1 chain with L103M, L128V, N132D, M140L, S182P, H243L
modifications: ERT2 domain of ZF10-1_p65_ERT2 construct
- endoxifen concentration at which IL-12 expression is induced [6]: 0.1 nM
- fold activation and induced mCherry levels compared to WT (SB03422) [7]: highest fold activation and induced mCherry levels

B4: SB09657: ERT2 mutant transcriptional switch construct pSFFV: ZF10-1_p65_ERT2 domain (Table 23) (protein)
chain: B1 chain with L73I, L103M, N132D, S182P, H243L
modifications: ERT2 domain of ZF10-1_p65_ERT2 construct
- endoxifen concentration at which IL-12 expression is induced [6]: 0.1 nM
- fold activation and induced mCherry levels compared to WT (SB03422) [7]: highest fold activation and induced mCherry levels

B5: SB09626: ERT2 mutant transcriptional switch construct pSFFV: ZF10-1_p65_ERT2 domain (Table 23) (protein)
chain: B1 chain with L73I, N132D, M140L, S182P, H243L
modifications: ERT2 domain of ZF10-1_p65_ERT2 construct
- endoxifen concentration at which IL-12 expression is induced [6]: 0.1 nM
- fold activation and induced mCherry levels compared to WT (SB03422) [7]: highest fold activation and induced mCherry levels

B6: SB09652: ERT2 mutant transcriptional switch construct pSFFV: ZF10-1_p65_ERT2 domain (Table 23) (protein)
chain: B1 chain with L73I, L110V, N132D, M140L, S182P, M236A, H243L
modifications: ERT2 domain of ZF10-1_p65_ERT2 construct
- endoxifen concentration at which IL-12 expression is induced [6]: 0.1 nM
- fold activation and induced mCherry levels compared to WT (SB03422) [7]: highest fold activation and induced mCherry levels

Source: patent US20260022364A1, “ERT2 MUTANTS, INDUCIBLE CELL DEATH SYSTEMS, AND USES THEREOF” (Senti Biosciences, Inc., priority 2023, published 2026)
